Assay results from a protein production outcome set (Wang et al. 2014).

Assay: label from the status in PepcDB records

| Sequence | protein production |
| --- | --- |
| GAAGPWRLPIGNSVVASSPPVLQANAETWLDFTDLVFIDPVGTGYSRFVASGDEVRKHFYAVEGDISAMAVVIRRWLEKNDRLVSPKYLAGESYGGIRGPKVVDNLQTKQGVGVNGLILVSPVLDFRDLSGSSLLQYAARLPSMTAVARQQKGKVNRADLADVESYARSEFLTDLVKGEADKEATTRLADRVSALTGIDKTVSRRLAGRFDTREFQREFDRDRGRVTGRFDGAKLGLDPFPDSSAAHFGDPSADSLIAPLTSAAVQLTRSTLNWKPDGSYELLNGSVAEQWDFGRGRQPLESTTQLREILSVDPSLQVLVTGGLFDLAAPYFGTQMVLDQLPPTLAEKRVKFVVYPGGHMFYAEDAARQSLHDEVKAMMK | failed |
| GAPLQRMLDEIAGHAACPVVVTNLAHRVLATAGERSAVDDVLRDWERIARQAGGSEGAGWVRAELGGRGERWGRIVLCGYRGDAATGRLLADRAAEALVLHRMLGGSAHTWEEQSAQGLLTDLVSGVVPARQLLPRARAAGLPVNRRTFVPLVVRDGEPPVLDRVLRMLGLPGLVAELADGATAVLLSLARDQDAEALSAHFATRLRTESGASGTVVAAADPRTAWDDVPAGLREAQHVADAVAENSAVLDLPAVVRLRDVHLRGLIRLLRDDPYVQSFAERELNGLLCGRDAESDLLPVLRTYLATGRNKSRTAQLHHVSRPALYRRLEAIQARLGVDLDDFEQAASVHIALLAHDAQQ | failed |
| GDAHDQQALDYALYHLRIMTPAHGERSSIAAKGLTGEGYKGHVFWDTEVFLLPFHLFSDPTVARSLLRYRWHNLPGAQEKARRNGWQGALFPWESARSGEEETPEFAAINIRTGLRQKVASAQAEHHLVADIAWAVIQYWQTTGDESFIAHEGMALLLETAKFWISRAVRVNDRLEIHDVIGPDEYTEHVNNNAFTSYMVYYNVQQALSIARQFGCSDDAFIHRAEMFLKELRLPEIQPDGVLPQDDSFMTKPAINLAKYKAAAGKQTILLDYSRAEVNEMQILKQADVVMLNYMLPEQFSSASCLANLQFYEPRTIHDSSLSKAIHGIVAARCGLLTQSYQFWREGTEIDLGADPHSCDDGIHAAATGAIWLGAIQGFA | failed |
| GDAQAGLVLLHGRGASAQGMLQLADDLDVPDIAHLAPQARMRSWYPQSFMAPRDQNEPELASALATIGDVLGRLADAGIGPARTVLLGFSQGACLATTYAAQTPQRYGGVVGLSGGLIGPDGASFDYEGSLDATPVFLGCSDQDPYIPRARVAETADVLRALNADVTSRIYEGLGHTINDAERQHARSLLRRCVD | failed |
| GEEDWVLPSEVEVLESIYLDELQVIKGNGRTSPWEIYITLHPATAEDQDSQYVCFTLVLQVPAEYPHEVPQISIRNPRGLSDEQIHTILQVLGHVAKAGLGTAMLYELIEKGKEILTDNNIPHGQCVICLYGFQEKEAFTKTPCYHYFHCHCLARY | failed |
| GEKTFTQRSRLFVGNLPPDITEEEMRKLFEKYGKAGEVFIHKDKGFGFIRLETRTLAEIAKVELDNMPLRGKQLRVRFACHSASLT | not failed |
| GERPEPVFDAFADRLAEVAAVPYAMVNFIDENRQFFAGLHAPDGTGSGGRPAADGAEPPDVRRYMARDYGFCPHVVVRRKALVLEDVCDYPRFAGNPVVDEIGIRSYLGAPLIDRTGIALGTICVVDIEPRPWGRAGLETIKALAAELVEQIGRRESGGI | failed |
| GERRIPESRILRREVVEATSAVAAALQIPARAPVIEMTRVRLIDGAPMLAEEIWLPYDRFAAFSRLELDSIGDLLYPVYEAHCNQIVASATETLTVEAIGPAHARLLRIEPGTPAVVIERLAYGYDRRPLEWRRSRGPASEFIYQAEIR | failed |
| GERRKDRPYVEEPRHVKVQKGSEPLGISIVSGEKGGIYVSKVTVGSIAHQAGLEYGDQLLEFNGINLRSATEQQARLIIGQQCDTITILAQYNPHVHQLSSHSR | not failed |
| GGRRWNWVQSWPVWKYFKEYFPICLVKTQDLDPGHNYIFGFHPHGIFVPGAFGNFCTKYSDFKKLFPGFTSYLHVAKIWFCFPLFREYLMSNGPVSVSKESLSHVLSKDGGGNVSIIVLGGAKEALEAHPGTFTLCIRQRKGFVKMALTHGASLVPVFSFGENDLYKQINNPKGSWLRTIQDAMYDSMGVALPLIYARGIFQHYFGIMPYRKLIYTVVGRPIPVQQILNPTSEQIEELHQTYLEELKKLFNEHKGKYGIPEHETLVFK | failed |
| GGTSNEVAQFLSKENQVIVRMRGLPFTATAEEVVAFFGQHCPITGGKEGILFVTYPDGRPTGDAFVLFACEEYAQNALRKHKDLLGKRYIELFRSTAAEVQQVLNRFSSA | not failed |
| GHFPRACVSSKNLMEKECCPPWSGDRSPCGQLSGRGSCQNILLSNAPLGPQFPFTGVDDRESWPSVFYNRTCQCSGNFMGFNCGNCKFGFWGPNCTERRLLVRRNIFDLSAPEKDKFFAYLTLAKHTISSDYVIPIGTYGQMKNGSTPMFNDINIYDLFVWMHYYVSMDALLGGSEIWRDIDFAHEAPAFLPWHRLFLLRWEQEIQKLTGDENFTIPYWDWRDAEKCDICTDEYMGGQHPTNPNLLSPASFFSSWQIVCSRLEEYNSHQSLCNGTPEGPLRRNPGNHDKSRTPRLPSSADVEFCLSLTQYESGSMDKAANFSFRNTLEGFASPLTGIADASQSSMHNALHIYMNGTMSQVQGSANDPIFLLHHAFVDSIFEQWLRRHRPLQEVYPEANAPIGHNRESYMVPFIPLYRNGDFFISSKDLGYDYSYLQDSDPDSFQDYIKSYLEQASRIWSWLLGAAMVGAVLTALLAGLVSLLCRHKRKQLPEEKQPLLMEKEDYHSLYQSHL | failed |
| GHMHTPFIVALDFPSKQEVERFLRPFAGTPLFVKVGMELYYQEGPAIVAFLKEQGHAVFLDLKLHDIPNTVKQAMKGLARVGADLVNVHAAGGRRMMEAAIEGLDAGTPSGRMRPRCIAVTQLTSTDERMLHEELWISRPLVETVAHYAALAKESGLDGVVCSANEAAFIKERCGASFLAVTPGIRFADDAAHDQVRVVTPRKARALGSDYIVIGRSLTRAADPLRTYARLQHEWNGGERESTTPT | not failed |
| GHMYETIRYEVKGQVAWLTLNRPDQLNAFTEQMNAEVTKALKQAGADPNVRCVVITGAGRAFCAGEDLSGVTEEMDHGDVLRSRYAPMMKALHHLEKPVVAAVNGAAAGAGMSLALACDFRLLSEKASFAPAFIHVGLVPDAGHLYYLPRLVGRAKALELAVLGEKVTAEEAAALGLATKVIPLSDWEEEVKQFAERLSAMPTKAIGLIKRLLRESEETTFDRYLEREAECQRIAGLTSDHREGVKAFFEKRKPLFQGN | not failed |
| GKFGFNDAVGHPKTLKGAAYGRFANSFNLANNKISMDPDGNWMNKIYNEAELAEMDGLNYNWLDEAWSGAFTMNHSVNVSGGSEKATYFAGASYYTQGANLGKQDYNRWNFRAGVDIKLTSDLKFSATIAGNQQETTSSFTKGLSNLNGYGGTKPGESGDYLVLAHMPNYLPWEITLDDGNTYYTSPLLNSYSSAGNATSGNKMSTWNYFAMENNDGSYSTNDNFSYDANFSVTYAVPFIKGLSFKGSYALKRSASDSEQAFMPFTLAYLKASDALTPGNRFYSDHPSVSDYQLKEFTGSTRVVYSDQMAKNEQLNFYVNYEGKFGKHSIAAMAAVEKMQAYMHSKRMLFNNPDPDGYLGTSPSAGAMDTGNSITYKYKQGSLSYLGRVSYNYADKYLFQFLFRSDASTKFAPANYWGFFPGVSVGWVASEEEFMKKLLPSWFEYMKVRFSWGRTGKDNIKAWGWKQLYSLDPSRGYGFGSNGGILQTGIKPGATPNPDAHWDNTDKFNLGFDLRFLNNRLSATVDVYYDINSDILNQNIGGIIGTPIFAGGALTEVNFGRIDAFGSEFSLNWRDKIDQVKYNIGVNFGFNGNRVREWPQSAPSYIQENSVREGASTIFPTYGYKVWRGTSSGDGILRNSDDIENYWNYLSANAEAAGTSPEYLGVKDASQLKPGMLAYQDLGGVLNEDGTQSGPDGRIAKTQDYAKLNKSGKTYGFTTKLGAEWKGISFNMMIATSWGGYRQIDVNKITTSSGDMLWTPDSFWEDMFDERNNTTGKYPNLGLDNRISGSVIAPSDFWSISTFRCYIRNLSIGYTLPKAWLSPLKIQSAKLSLTGNNLW | failed |
| GKGKNIIVLHLESFQQFLIDYKLKEGDKEYEVTPFINSLYHSNATLAFPNFFHQVKAGKTSDAETMMENSLFGLNSGSFMVNYGGENTQFATPSILAQKGGYTSAVFHGNVGTFWNRNNAYKQWGYNYFFDSSYFSKQNSKNSFQYGLNDKYMFKDSIKYLEQMQQPFYTKFITVSNHYPYTSLKGESSEEGFPLAKTDDETINGYFATANYLDAALKSFFDYLKATGLYDNSIFVLYGDHYGISNSRNSSLAPLLGKDSETWSEYDNAMLQRVPYMIHIPGYTNGSIKETFGGEIDALPTLLHILGIDTSQFVQLGQDLLSPQNSQIVAQRTSGTYMTPEYTNYSGRLYNTQTGLEIT | failed |
| GKLFEPYEHMVIDIPSEYQGNVTQLMAARKGQMLSMDNISDEWVRMEYKVPARGLISFRTMFMTETRGTGIANSYSEGLDEWAGEIKGRATGSLVADRSGQITAYALQQLADRGNFFVEPGTE | failed |
| GKVSIPSIVYDIVRKNGGNKILLVGNGMLASEIAPYFSYPQYKVTVAGRNIDHVRAFAEKYEYEYVLINDIDSLIKNNDVIITATSSKTPIVEERSLMPGKLFIDLGNPPNIERGNNVITLDEIYEISKKNEMLREEKINQ | not failed |
| GLGGFTRTRNKGKSNVIDMIQKYIESKGMPIENWDITVGYCTNLEEAEKYRDDVEAQLGVKLLERREDFKTRISIISGCHTGPYALGIACIPKYTTIRL | not failed |
| GLINTHAHVGMSASKGLFDDVDLDSFLKKTFEYDSDRTSTGIFNSAKLGMYEMIGNGITAFVDLYYSEDIIAKAAEEIGIRAFLSWVTLDKELTTQIGDPVENAENFIRNHVGNKYVVPSVGVQGIYVANDDTFRRAMDLAEKYGTILHMHLSETRKEVYDAVKKLGERPIEHLHNIGILNKRVLAAHCVWATYHEVRLLSKDGVNVSWNSISNFKLGTGGIPPIPEMMRENVNVTIGTDSNGSNNSLDMFQAMKFSAISVKNYRWDASLMKAQEILDMATRNAARALQLNAG | failed |
| GMEGLVMNTRRALFADWRVREAMLLAFDFDLINRTLTGGAEPRIASYFSNSALGMEAGAPATGRERALLEPFAADLLPGTLDGYALPATHGASNRGNLRKAARLLSEAGWRIEDGMLEGPGGTPFAFEILLPQGADAMIAASIIYRQALTRLGISARITTVDPAQFKQRVDNQDFDMTSFLRSLTLSPGNEQLLYWSAEDKDLPGSRNLMGMESPAAEAVIRHMLATDDAEEFQASVRALDRVLTAGRYVIPMWYSR | failed |
| GMTTRVLALDALVPIVAADNPVPRVSTPDLARALSGEISNWKELGGPDMPLVLHALARDISLEAALEARLGRPIAAEITHPDLASLAAAVARDPYALAITGQTARGAARVLPLTDSCGFPLVPSPLAVKSED | failed |
| GNPKLKDLYIRPNIVTKRMTGSLEAHSNGFRYISVRGDKVDILYNNIKSAFFQPCDGEMIILLHFHLKYAIMFGKKKHVDVQFYTEVGEITTDLG | failed |
| GQYALTNGDPLNGHCYLSGYISLLLRAEPYPTSRYGSQCMQPNNIMGIENICELAARLLFSAVEWARNIPFFPDLQITDQVSLLRLTWSELFVLNAAQCSMPLHVAPLLAAAGLHASPMSADRVVAFMDHIRIFQEQVEKLKALHVDSAEYSCLKAIVLFTSDACGLSDAAHIESLQEKSQCALEEYVRSQYPNQPSRFGKLLLRLPSLRTVSSSVIEQLFFVRLVGKTPIETLIRDMLLSGSSFNWPYMSIQCS | failed |
